Target: the molecule itself
Test: SAXS

B1: Saccharomyces cerevisiae Rnt1p (intact protein) (enzyme, UniProt Q02555 1-471, looked up)
chain: MGSKVAGKKKTQNDNKLDNENGSQQRENINTKTLLKGNLKISNYKYLEVIQLEHAVTKLVESYNKIIELSPNLVAYNEAVNNQDRVPVQILPSLSRYQLKLAAELKTLHDLKKDAILTEITDYENEFDTEQKQPILQEISKADMEKLEKLEQVKREKREKIDVNVYENLNEKEDEEEDEGEDSYDPTKAGDIVKATKWPPKLPEIQDLAIRARVFIHKSTIKDKVYLSGSEMINAHNERLEFLGDSILNSVMTLIIYNKFPDYSEGQLSTLRMNLVSNEQIKQWSIMYNFHEKLKTNFDLKDENSNFQNGKLKLYADVFEAYIGGLMEDDPRNNLPKIRKWLRKLAKPVIEEATRNQVALEKTDKLDMNAKRQLYSLIGYASLRLHYVTVKKPTAVDPNSIVECRVGDGTVLGTGVGRNIKIAGIRAAENALRDKKMLDFYAKQRAAIPRSESVLKDPSQKNKKRKFSDTS
- stoichiometry N: 2

Reference: publication PMC5299047 (Structure (London, England : 1993), 2017)
